Data reported in patent US20210292423A1 (published 2021).
Residue numbers refer to the chain shown, from its start. Each block holds one binder with its values, some of them ahead of it.

What was measured:
[1] = target: T1, human CD3ε/δ-Fc fusion protein (soluble recombinant CD3ε/δ complex) (human, UniProt P04234 22-105); assay: SPR, CD3-Fc captured, Fab 100 nM
T1 construct: also called huCD3ε/δ; huCD3; not shown: hinge, CH2, CH3 of human IgG with tag
Protocol: (§1) Binding was tested by SPR using a BIAcore3000 instrument run with HBS-EP buffer. Recombinant huCD3 proteins (ε/δ (PB01226), ε/γ (PB01225)) were captured at 10 μl/min via Fc-tag by anti-human Fc capture antibody MAB1302 (Millipore) immobilized on a CM5 sensor chip. Anti-CD3 Fabs were used as analytes at 100 nM with association and dissociation times of 240 sec and 300 sec, respectively at 30 μl/min. After each cycle the surfaces were regenerated by a 2 min pulse of 10 mM glycine buffer pH2.5.

[2] = target: recombinant huCD3ε/γ protein with Fc-tag (PB01225) (human, UniProt P07766 23-126; P09693 23-116); assay: SPR, CD3-Fc captured, Fab 100 nM
Protocol: as §1

[3] = target: T2, human CD3ε expressed alone on HEK293F cells (human, UniProt P07766 23-207); assay: flow cytometry, transfected HEK293F
T2 construct: also called huCD3ε
Protocol: (§2) To analyze binding of antibodies to human CD3ε and human CD3δ expressed on the surface of cells, HEK293F cells were transfected with both constructs either alone or in co-transfection and signals were measured by flow cytometry. For transfection procedure FuGENE HD Transfection Reagent (Promega, #E2311) was used according to manufacturer's protocol.
(§3) Antibodies for staining were seeded at 1 μg in 50 μl per well Stain Buffer with FBS (BD Pharmingen) in 96-well U-bottom suspension culture plates (Greiner bio-one). Harvested transfected cells were resuspended in Stain Buffer with FBS and were added at 50 μl per well to the antibodies. Cells were incubated at 4° C. in the dark for 30 min and were washed twice. 0.5 μg secondary antibody Goat F(ab′)2 Anti-Human IgG-FITC (Beckman Coulter, #732598) or Goat F(ab′)2 Anti-Human kappa-PE (Southern Biotech, #206209), respectively, in combination with 0.5 μg 7-AAD per well was added in 100 μl Stain Buffer with FBS. Cells were incubated at 4° C. in the dark for 15 min and were washed twice. For measurement, cells were resuspended in 200 μl Stain Buffer with FBS. Cells were measured using the MACSQuant (Miltenyi Biotec) or LSRII (BD) flow cytometer, respectively. Further data analyses were performed using the FlowJo software (Tree Star, Inc.).

[4] = target: T3, human CD3ε and CD3δ co-expressed on HEK293F cells (human, UniProt P07766 23-207; P04234 22-171); assay: flow cytometry, transfected HEK293F
T3 construct: also called huCD3ε/δ (transfected cells); huCD3e + huCD3d
Protocol: as §2, §3

[5] = target: T4, human CD3 (TCR complex) on primary human T cells or Jurkat cells (human, UniProt P07766 23-207); assay: flow cytometry, primary human T cells
T4 construct: on the cells it stands in the whole TCR/CD3 complex; also called Jurkat E6-1 (expressing human TCR)
Protocol: The binding capacity of the CD3-Fabs was determined by flow cytometry. Primary human T cells were used as target cells. Therefore, peripheral blood mononuclear cells (PBMCs) were isolated from 200 ml peripheral blood of healthy donors treated with EDTA by Ficoll density centrifugation. 15 ml Histopaque (Sigma-Aldrich) was preloaded on a 50 ml Leucosep-Tube (Greiner bio-one). Blood was diluted with autoMACS Rinsing Buffer+1% BSA (Miltenyi Biotec) and loaded on the membrane of a total of ten prepared tubes. Tubes were centrifuged without brake for 10 min at 1000 xg. PBMCs were collected and washed with autoMACS Rinsing Buffer+1% BSA three times. Finally, PBMCs were resuspended in autoMACS Running Buffer (Miltenyi Biotec) for isolation of T lymphocytes by autoMACSpro technology using the Pan T Cell isolation Kit (Miltenyi Biotec) according to manufacturer's instructions. Purity of separated T cells was analyzed by MACSQuant flow cytometry using the human 7-Color Immunophenotyping Kit (Miltenyi Biotec). Isolated T cells were resuspended in Stain Buffer with FBS (BD Pharmingen) and 1E5 cells in 100 μl per well were seeded in 96-well U-bottom suspension culture plates (Greiner bio-one). Fab antibodies were diluted 1:3 in serial in PBS (Invitrogen) and 5 μl each were added to the cells at a final maximum concentration of 30000 ng/ml. The assay was incubated for 45 min at 4° C. Cells were washed twice with Stain Buffer with FBS and 1 μg secondary antibody Goat F(ab′)2 Anti-Human kappa-FITC (Beckman Coulter, #732621) per well was added in 100 μl Stain Buffer with FBS per well. The assay was incubated for 20 min at 4° C. and washed twice afterwards. Cells were resuspended in 150 μl Stain Buffer with FBS per well and were measured using the MACSQuant (Miltenyi Biotec) or LSRII (BD) flow cytometer. Further data analyses were performed using the FlowJo software (Tree Star, Inc.). Read out was percentage of cells positive for antibody binding. Cells treated only with the secondary but no primary antibody were used to set the gates. EC50 Curves were calculated by XLfit (Algorithm 205), EC50 values were calculated as inflection point of the slope (data are shown in table 6).

[6] = target: T1, human CD3ε/δ-Fc fusion protein (soluble …); assay: SPR Biacore, CD3εδ-Fc captured, Fab analyte
Protocol: Binding affinities of anti-CD3 binding Fabs or CODV-Fabs were measured by surface plasmon resonance (SPR) using a Biacore3000 instrument (GE Healthcare). Assay buffer was HBS-EP (BR-1001-88, GE Healthcare). Capture of CD3ε/δ-Fc fusion proteins was achieved using the human antibody capture kit (GE Healthcare). […] The CD3εδ-Fc fusions proteins were captured at 10 μl/min to approx. 70 RU to yield Rmax values of 30 RU. Binding kinetics with the anti-CD3 Fabs or CODV-Fabs was measured at 30 μl/min for 240 sec. and 600 sec. for association and dissociation phase, respectively. Twofold dilutions of Fabs from 3 to 400 nM in assay buffer were used. All Fab concentrations were run in duplicate together with duplicate buffer blanks for double referencing. Regeneration of the capture surface was performed with a 1 min injection of 3M MgCl2 solution at 30 μl/min. For data analysis the BIAevaluation software v.4.1 (GE Healthcare) was used. Data were fit globally using a 1:1 Langmuir model with mass transfer.

[7] = target: T5, human CD3δ expressed alone on HEK293F cells (human, UniProt P04234 22-171); assay: flow cytometry, HEK293F transfected with huCD3δ
T5 construct: entry includes the signal peptide; also called huCD3δ
Protocol: as §2
Cells were incubated on a shaker at 37° C. and 5% CO2. At day one to three after transfection cells were harvested and binding of antibodies was analyzed by flow cytometry.
as §3

[8] = target: T6, Macaca fascicularis CD123 Fc-fusion protein (Macaca fascicularis); assay: SPR Proteon XPR36, rat IgG captured, CD123-Fc analyte
T6 construct: also called cyno CD123-Fc
Protocol: (§4) Screening of anti-CD123 rat IgGs for binding affinities to human CD123 and cross-reactivities to cyno CD123 was performed with hybridoma supernatants using a Proteon XPR36 (Biorad) in a one-shot kinetics approach. A capture assay was established using a goat anti-rat IgG (112-005-071, Jackson Immuno Research). The capture antibody was coated on GLC chips (176-5011, Biorad) to approx. 8000 RU in the vertical direction using the amine coupling kit (176-2410, Biorad). […] Binding kinetics with human and cyno CD123-Fc fusion protein was measured at 100 μl/min in the horizontal direction with 120 sec. and 600 sec. for association and dissociation, respectively. The CD123-Fc proteins were used in twofold dilutions from 6 nM to 100 nM. PBSET buffer (176-2730, Biorad) was used as assay buffer. Regeneration was achieved by injection of 10 mM Glycine buffer pH 1.5 for 18 sec at 30 μl/min. Data processing and analysis was performed using ProteonManager software v3.0. Fitting of the sensorgrams was done with a 1:1 Langmuir model.

[9] = target: T7, human CD123 Strep-II tagged Fc-fusion protein (human); assay: as above
T7 construct: also called human CD123-Fc; recombinant CD123
Protocol: as §4

[10] = target: T8, human CD123 (IL3RA) on cells (human, UniProt P26951 19-378); assay: flow cytometry, CD123 transfected HEK293, hybridoma supernatant
T8 construct: also called CD123 transfected HEK293; THP-1
Protocol: Cells were resuspended in 200 μl Stain Buffer with FBS per well and were measured using the MACSQuant (Miltenyi Biotec) or LSRII (BD) flow cytometer. Further data analyses were performed using the FlowJo software (Tree Star, Inc.). Read out was percentage of cells positive for antibody binding. Cells treated only with the secondary but no primary antibody were used to set the gates. Curves were calculated by XLfit (Algorithm 205).

T5 sequence (P04234 22-171 limits assumed, stated change not applied): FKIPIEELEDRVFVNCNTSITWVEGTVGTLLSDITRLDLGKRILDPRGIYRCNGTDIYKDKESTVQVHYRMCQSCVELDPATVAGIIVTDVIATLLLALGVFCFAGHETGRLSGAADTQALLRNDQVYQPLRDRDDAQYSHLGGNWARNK
T1 sequence (chain, as listed by the source mutant, chain 1 of 2): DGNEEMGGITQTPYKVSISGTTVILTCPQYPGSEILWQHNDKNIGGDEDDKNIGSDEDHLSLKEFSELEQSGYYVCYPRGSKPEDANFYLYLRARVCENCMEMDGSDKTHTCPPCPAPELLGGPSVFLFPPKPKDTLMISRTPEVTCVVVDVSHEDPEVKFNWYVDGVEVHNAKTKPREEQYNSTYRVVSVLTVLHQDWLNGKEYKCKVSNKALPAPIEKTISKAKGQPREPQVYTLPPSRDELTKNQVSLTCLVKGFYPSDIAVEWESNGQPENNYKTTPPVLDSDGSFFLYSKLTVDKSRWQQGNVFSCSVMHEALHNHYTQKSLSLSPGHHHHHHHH
T1 sequence (P04234 22-105, stated change not applied, chain 2 of 2): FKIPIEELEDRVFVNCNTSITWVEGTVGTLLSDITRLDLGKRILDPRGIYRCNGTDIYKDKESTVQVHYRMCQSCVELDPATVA
T6 sequence (chain, as listed by the source limits assumed): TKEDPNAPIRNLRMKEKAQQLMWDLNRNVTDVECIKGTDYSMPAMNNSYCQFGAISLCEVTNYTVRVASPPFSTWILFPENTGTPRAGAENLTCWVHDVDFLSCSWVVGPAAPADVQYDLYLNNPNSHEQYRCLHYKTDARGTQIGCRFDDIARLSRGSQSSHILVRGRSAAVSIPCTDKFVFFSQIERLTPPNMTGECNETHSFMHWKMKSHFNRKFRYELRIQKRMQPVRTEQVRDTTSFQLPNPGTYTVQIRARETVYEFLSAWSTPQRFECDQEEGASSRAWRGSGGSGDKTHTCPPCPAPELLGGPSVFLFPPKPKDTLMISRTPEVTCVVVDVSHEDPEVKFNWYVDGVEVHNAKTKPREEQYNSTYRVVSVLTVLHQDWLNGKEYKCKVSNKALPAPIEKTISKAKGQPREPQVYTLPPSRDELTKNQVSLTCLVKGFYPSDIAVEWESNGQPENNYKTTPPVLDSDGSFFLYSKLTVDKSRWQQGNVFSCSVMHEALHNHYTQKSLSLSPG
T7 sequence (chain, as listed by the source limits assumed): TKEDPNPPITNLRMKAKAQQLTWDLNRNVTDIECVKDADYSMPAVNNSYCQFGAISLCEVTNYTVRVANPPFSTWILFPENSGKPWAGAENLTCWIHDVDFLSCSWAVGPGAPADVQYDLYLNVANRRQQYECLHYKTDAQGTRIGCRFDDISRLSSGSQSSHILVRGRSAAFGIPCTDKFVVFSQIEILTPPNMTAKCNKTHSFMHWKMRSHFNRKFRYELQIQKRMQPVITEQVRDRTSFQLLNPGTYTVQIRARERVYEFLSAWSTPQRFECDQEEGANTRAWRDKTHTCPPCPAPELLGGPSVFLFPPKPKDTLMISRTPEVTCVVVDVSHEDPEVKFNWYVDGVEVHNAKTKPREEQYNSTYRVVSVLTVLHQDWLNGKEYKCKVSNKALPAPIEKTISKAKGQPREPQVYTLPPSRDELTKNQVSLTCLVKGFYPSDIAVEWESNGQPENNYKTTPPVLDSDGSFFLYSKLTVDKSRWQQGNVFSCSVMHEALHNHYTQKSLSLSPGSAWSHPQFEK
T8 sequence (P26951 19-378): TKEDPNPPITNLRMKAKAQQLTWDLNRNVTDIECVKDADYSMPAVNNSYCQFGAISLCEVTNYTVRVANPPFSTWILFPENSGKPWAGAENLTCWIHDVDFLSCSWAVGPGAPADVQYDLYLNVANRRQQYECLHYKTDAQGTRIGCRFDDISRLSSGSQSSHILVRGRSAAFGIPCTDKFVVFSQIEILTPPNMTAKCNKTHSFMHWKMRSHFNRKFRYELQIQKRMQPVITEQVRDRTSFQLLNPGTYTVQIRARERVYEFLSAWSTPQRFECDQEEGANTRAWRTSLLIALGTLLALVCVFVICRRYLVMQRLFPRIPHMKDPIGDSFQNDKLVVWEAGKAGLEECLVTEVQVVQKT

B4: 1E6-C9 Fab (Fab, V domains shown)
VH: EVQLVETGGSLVQPGKSLKLTCATSGFTFSYAWMHWVRQSPDKQLQWVAQIKAKSNNYATYYAESVEGRFTISRDDSKSSVYLQMNSLKEEDTAIYYCRGVYYGLLGLDAWGQGTSVTVSS
VL: DVVMTQTPVSLSVRLGGQVSISCRSSQSLVHNNGNTYLSWFLQKPGQSPQLLIYKVSNRFSGISDRFSGSASGTDFTLKISRVEPDDLGVYYCGQGTHYPFTFGSGTKLEIK
notes: also called 1E6-B8; 1E6-B8/B9-C9-Fab
RU of Fab binding at 100 nM [1]: 10 RU | RU of Fab binding at 100 nM [2]: 7 RU | % antibody positive transfected cells [3]: 87.7% | % antibody positive transfected cells [4]: 91.7% | EC50 [5]: 18.7 nM | Kd [6]: 41 nM | koff [6]: 0.0039 s⁻¹ | kon [6]: 93000 M⁻¹ s⁻¹ | binding result [7]: no binding (tested: <20% of binding of huCD3e + huCD3d)

B5: 9B8-G6 anti-CD123 rat IgG (hybridoma supernatant) (antibody, V domains shown)
VH: EVKLQESGPSLVQSSQTLSLTCTVSGFSLTSYHIHWVRQPPGKGLEWMGVMWSDGDTSYSSALKSRLSISRDTSQSQVFLKMNSLQTEDTATYYCARGDYSSYIYLWFAYWGQGTLVTVSS
VL: DIVMTQSPSSLAVSAGETVTINCKSSQSFLSSGDERNYVAWYQHKPGQSPKLLIYWASTRHSGVPDRFIGSGSGTDFTLTISSVQAEDLAIYYCQQYYDTPLTFGSGTKLEIK
notes: rat IgG; also called BFX - 9B8
Kd [8]: 0.17 nM | Kd [9]: 0.19 nM | koff [9]: 0.00028 s⁻¹ | kon [9]: 1.5e+06 M⁻¹ s⁻¹ | EC50 [10]: 1.2 ng/mL

B6: 9D7-C8 anti-CD123 rat IgG (hybridoma supernatant) (antibody, V domains shown)
VH: B5 VH with P40T, S60N, D99Y, I104L
VL: B5 VL with A15E, E35G, R36K, H44Y, H61Q, S83T
notes: rat IgG; also called BFX - 9D7
Kd [8]: 0.07 nM | Kd [9]: 0.3 nM | koff [9]: 0.00032 s⁻¹ | kon [9]: 1e+06 M⁻¹ s⁻¹ | EC50 [10]: 0.9 ng/mL

B7: 9F6-G3 anti-CD123 rat IgG (hybridoma supernatant) (antibody, V domains shown)
VH: QVQLQESGPTLVKPGDSVKMSCKASGYTFTDYIIHWVKQSHGKSLEWIGYINPYSDGTNYNEKFKSKATLTVDKSTSTAYMEFSRLTSEDSAIYFCALNYGSYYAMDAWGQGTSVTVSS
VL: DIQMTQSPASLSASLGETVTIECRPSEDIHSNVAWYQQKPGNSPQLLIYDASNLADGVPSRFSGSGSGTQYSLKINSLQSEDVASYFCHQYNIYPYTFGSGTKLELK
notes: rat IgG; also called BFX - 9F6
Kd [8]: 0.5 nM | Kd [9]: 0.04 nM | koff [9]: 6.7e-06 s⁻¹ | kon [9]: 180000 M⁻¹ s⁻¹ | EC50 [10]: 1.3 ng/mL

More lines, main results first:

RU of Fab binding at 100 nM [1]: 10 RU | RU of Fab binding at 100 nM [2]: 3 RU | % antibody positive transfected cells [3]: 95% | % antibody positive transfected cells [4]: 97% | EC50 [5]: 1.7 nM | Kd [6]: 4.4 nM | koff [6]: 0.0011 s⁻¹ | kon [6]: 250000 M⁻¹ s⁻¹
B1: 18G9-H11 Fab (Fab, V domains shown)
VH: EVQLVETGGSLVQPGKSLKLTCATSGFTFSNAWIQWVRQSPEKQLEWVAQIKAKSNNYATYYAESVKGRFTISRDDSKSSVYLQMNSLKEEDTALYYCTWRHYYSSHTMDAWGQGTLVTVSS
VL: B4 VL with R14S, F41Y, A71G, E84A, D86T, T97S, H98Q, S105A, I111L
binding result [7]: no binding (tested: <20% of binding of huCD3e + huCD3d)

RU of Fab binding at 100 nM [1]: 9 RU | RU of Fab binding at 100 nM [2]: 6 RU | % antibody positive transfected cells [3]: 93.3% | % antibody positive transfected cells [4]: 93% | EC50 [5]: 14.3 nM | Kd [6]: 29 nM | koff [6]: 0.0049 s⁻¹ | kon [6]: 170000 M⁻¹ s⁻¹
B2: 13H2-C2 Fab (Fab, V domains shown)
VH: EEELVETGGSLVQPGKSLKLTCATSGFTFSNAWMHWVRQSPDKQLEWVAQIKAKSNNYATYYAESVKGRFTISRDDSKSSVYLQMNNLKEEDTAIYYCRYVHYGLAPMDAWGQGTSVTVSS
VL: B4 VL with R14S, F41Y, P45A, A71G, T77I, Y91F, H98Q, S105A, I111L
notes: also called 13H2-C3
binding result [7]: no binding (tested: <20% of binding of huCD3e + huCD3d)

RU of Fab binding at 100 nM [1]: 10 RU | RU of Fab binding at 100 nM [2]: 7 RU | % antibody positive transfected cells [3]: 97% | % antibody positive transfected cells [4]: 96% | EC50 [5]: 11.6 nM | Kd [6]: 5.2 nM | koff [6]: 0.0004 s⁻¹ | kon [6]: 77000 M⁻¹ s⁻¹
B3: 11F9-F8 Fab (Fab, V domains shown)
VH: EVQLVETGGTLVQPGKSLKLTCATSGFTFSNAWMHWVRQSPEKQLEWVAQIKAKSNNYATYYAESVKGRFTISRDDSKTSVYLQLNSLREEDTAIYYCRGTQYGYNPFDYWGQGVMVTVSS
VL: B4 VL with M4L, R14S, F41S, L51V, D65N, A71G, T97A
notes: also called 11F9-F8-huFab
binding result [7]: no binding (tested: <20% of binding of huCD3e + huCD3d)
